Measurements taken from article PMC12510318.

Tests used:
Test in all cases: EMSA
Details in all cases: EMSA: 6 ng 32P-satBaMV riboprobe, 2 U RNasin, 15 ul CAPS buffer (pH and salt not given), 20 min on ice; 4-12% NuPAGE in MES buffer at 4 C
[1] = system: rFIB (NbFIB2) WT (Nicotiana benthamiana)
[2] = system: rFIB D227A (Nicotiana benthamiana)
[3] = system: rFIB K134A (Nicotiana benthamiana)
[4] = system: rFIB K256A (Nicotiana benthamiana)
[5] = system: rFIB triple mutant (Nicotiana benthamiana)
[6] = system: rP20 WT (bamboo mosaic virus satellite RNA (satBaMV))

satBaMV riboprobe
Kd [1]: 50 nM
Kd [2]: 350 nM
Kd [3]: 140 nM
Kd [4]: 350 nM
Kd [5]: 1230 nM
Kd [6]: 32 nM
